These results are taken from article PMC9953004, “Scandium-44 Radiolabeled Peptide and Peptidomimetic Conjugates Targeting Neuropilin-1 Co-Receptor as Potential Tools for Cancer Diagnosis and Anti-Angiogenic Therapy” (Biomedicines, 2023).

The format of series [1] is in vitro ADME, human. How it is done:
(§1) Radioconjugate stability tests in 0.1 M PBS solution, 1 mM cysteine (Cys) solution, 1 mM histidine (His) solution and human serum (HS) were performed under rigorous conditions according to the procedure described in detail in our previous paper. In brief, isolated radioconjugates were dissolved in 50 µL PBS and appropriate volume of Cys, His and HS solution and then incubated at 37 °C. After the specified incubation time (depending on the half-life of a given radionuclide), which was up to 4–8 h for the ^44Sc-radiocompounds, 4 h for the ^68Ga-radiocompounds and about 6–14 days for the ^177Lu-radiocompounds, aliquots of solution were withdrawn from the mixture and the composition of the solution was analyzed on RP-HPLC in System 3 or 4 with gamma detection. The concentrations of Cys and His solutions were about 1000 times higher than that of the studied radiocompound. In the case of the radioconjugate stability study in HS, the concentration of the radiocompound was a maximum of 2–25 nmol/mL in 100% human serum. After incubation, the protein components were precipitated with a 2.5-fold volume excess of ethanol prior to RP-HPLC analysis, and then both the supernatant and precipitate radioactivity were measured with a Wizard gamma counter. The percentage of radioactivity remaining in the supernatant and bound by the precipitated serum protein components was calculated as the ratio of the radioactivity of the supernatant or the precipitate, respectively, to the sum of the radioactivity of the supernatant and the precipitate.

Another series in a line: physchem. The format is physicochemical. The conditions noted are these: pH 7.4. As to the method:
The lipophilicity value, defined as the decimal logarithm (logP) of the partition coefficient (P), was tested in the system of two immiscible (but saturated with each other) phases: 0.1 M PBS solution, pH 7.4, and n-octanol, in three independent experiments. Partition coefficient was determined as a ratio of radioactivity of the organic (n-octanol) and aqueous (PBS solution) phases and was shown as the mean ± SD. The lipophilicity test was carried out as follows: the tested radiocompound dissolved in 10–20 µL of PBS was incubated and intensively mixed in an equal amount of these two phases. After centrifugation, radioactivity of appropriate amounts of the separated organic (500 µL) and aqueous (100 µL) phases were measured on the Wizard gamma counter. Differences in the volume of phases taken for measurement resulted from the very low radioactivity of organic phases and were included in the calculations. Additionally, to confirm the stability of the studied radiocompounds during the experiment, the RP-HPLC analyses of the aqueous phase were performed after each lipophilicity test.

Series [2] is classed as physicochemical. The conditions noted are these: pH 7.4. How it is done: as §1
The conditions of series [3]: pH 7.4; cited from earlier work.

Where two headings read alike, the source gives them in different places. Where a SMILES comes first, the peptide text is derived from it. [ ]: non-standard residue; d: D form. The star is where a group is joined. DOTA = O=C(O)CN1CCN(CC(=O)O)CCN(CC(=O)*)CCN(CC(=O)O)CC1

As to `CC(C)C[C@H](NC(=O)[C@H](Cc1c[nH]c2ccccc12)NC(=O)[C@@H](NC(=O)[C@H](C)NC(=O)[C@@H](N)CCCCNC(=O)CN1CCN(CC(=O)O)CCN(CC(=O)O)CCN(CC(=O)O)CC1)[C@@H](C)O)C(=O)N1CCC[C@H]1C(=O)N1CCC[C@H]1C(=O)N[C@@H](CCCNC(=N)N)C(=O)O` [^68Ga-1bis, [^68Ga]Lys(DOTA-Ga)-A7R, metal not drawn] (H-K(DOTA)ATWLPPR-OH), the “stability in human serum” value in series [1] was “insufficient stability”. In “physchem”, the “logP ± SD” value is reported as −4.18 ± 0.07. Besides, the “stability in PBS buffer” value in series [2] is “complete stability”.

For `CC(C)C[C@@H](NC(=O)[C@H]1CCCN1C(=O)[C@H]1CCCN1C(=O)[C@H](N)CCCNC(=N)N)C(=O)N[C@H](Cc1c[nH]c2ccccc12)C(=O)N[C@@H](C(=O)N[C@H](C)C(=O)N[C@H](CCCCNC(=O)CN1CCN(CC(=O)O)CCN(CC(=O)O)CCN(CC(=O)O)CC1)C(=O)O)[C@H](C)O` [^68Ga-3, [^68Ga]^DR7A-^DLys(DOTA-Ga), metal not drawn] (H-[dR][dP][dP][dL][dW][dT][dA][dK](DOTA)-OH), in series [1], the “stability in human serum” value was “insufficient stability”. Moreover, in “physchem”, the “logP ± SD” value was −4.11 ± 0.06. For the same compound, the “stability in PBS buffer” value in series [2] is recorded as “complete stability”.

In the case of `CC(C)C[C@H](NC(=O)[C@H](Cc1c[nH]c2ccccc12)NC(=O)[C@@H](NC(=O)[C@H](C)NC(=O)[C@@H](N)CCCCNC(=O)CN1CCN(CC(=O)O)CCN(CC(=O)O)CCN(CC(=O)O)CC1)[C@@H](C)O)C(=O)N1CCC[C@H]1C(=O)N1CCC[C@H]1C(=O)N[C@@H](CCCNC(=N)N)C(=O)O` [^177Lu-1bis, [^177Lu]Lys(DOTA-Lu)-A7R, metal not drawn] (H-K(DOTA)ATWLPPR-OH), the “stability in human serum” value in series [1] was “insufficient stability”. In “physchem”, the “logP ± SD” value is given as −4.45 ± 0.03. For the same compound, in series [2], the “stability in PBS buffer” value was “complete stability”.

For `CC(C)C[C@@H](NC(=O)[C@H]1CCCN1C(=O)[C@H]1CCCN1C(=O)[C@H](N)CCCNC(=N)N)C(=O)N[C@H](Cc1c[nH]c2ccccc12)C(=O)N[C@@H](C(=O)N[C@H](C)C(=O)N[C@H](CCCCNC(=O)CN1CCN(CC(=O)O)CCN(CC(=O)O)CCN(CC(=O)O)CC1)C(=O)O)[C@H](C)O` [^177Lu-3, [^177Lu]^DR7A-^DLys(DOTA-Lu), metal not drawn] (H-[dR][dP][dP][dL][dW][dT][dA][dK](DOTA)-OH), the “stability in human serum” value in series [1] is on record as “insufficient stability”. Also, the “logP ± SD” value in “physchem” was −4.48 ± 0.05. In series [2], the “stability in PBS buffer” value is listed as “complete stability”.

For [^68Ga]Ga-DOTA-Ahx-A7R [^68Ga-1], in series [3], the “logP ± SD” value is recorded as −3.92 ± 0.03.

In the case of “[^68Ga]Lys(hArg)-Dab(Ahx-DOTA-Ga)-Pro-Arg [^68Ga-2]”, in series [3], the “logP ± SD” value is recorded as −4.57 ± 0.05.

As for [^177Lu]Lu-DOTA-Ahx-A7R [^177Lu-1], the “logP ± SD” value in series [3] is given as −3.40 ± 0.14.

Turning to “[^177Lu]Lys(hArg)-Dab(Ahx-DOTA-Lu)-Pro-Arg [^177Lu-2]”, the “logP ± SD” value in series [3] is −3.75 ± 0.08.
